In patent publication US9549967B2, “Regulation of sodium channels by PLUNC proteins” (The University of North Carolina at Chapel Hill, priority 2009, dated 2017):

Test system: trypsin
Assay: Cell-free fluorogenic assay of BGAR-MCA cleavage by trypsin
Assay type: biochemical
Details: 50 ng/ml rSPLUNC1; 1.0 or 0.3 U/ml trypsin
Procedure: For cell-free assays, reactions were carried out in 50 μl Ringer in a 96 well plate format with 100 μM BGAR-MCA. To measure endogenous protease activity in human bronchial epithelial cultures, 30 μl Ringer with 100 μM BGAR-MCA were placed directly onto the mucosal surfaces of human bronchial epithelial cultures grown on 12 mm T-clear inserts and the cultures were assayed in 12 well plates.

B1: SPLUNC1: human SPLUNC1, 256 amino acid secreted PLUNC protein (SEQ ID NO:1); rSPLUNC1 = V5/6His-tagged protein purified from HEK293 media (protein, listed as Homo sapiens)
chain: MFQTGGLIVFYGLLAQTMAQFGGLPVPLDQTLPLNVNPALPLSPTGLAGSLTNALSNGLLSGGLLGILENLPLLDILKPGGGTSGGLLGGLLGKVTSVIPGLNNIIDIKVTDPQLLELGLVQSPDGHRLYVTIPLGIKLQVNTPLVGASLLRLAVKLDITAEILAVRDKQERIHLVLGDCTHSPGSLQISLLDGLGPLPIQGLLDSLTGILNKVLPELVQGNVCPLVNEVLRGLDITLVHDIVNMLIHGLQFVIKV
modifications: V5/6His tag
notes: rSPLUNC1 = V5/6His-tagged protein purified from HEK293 media
effect on the ability of trypsin to cleave fluorogenic substrate BGAR-MCA: ~10%
